Reference: the Immune Epitope Database (IEDB)
pIC50, pKd: −log10 of the molar value.

Assays:
HLA-A*02:19 = assay: IEDB peptide-MHC binding, purified MHC/competitive/fluorescence; filed as Kd, often an IC50 or EC50 that approximates it; ≥ and ≤ were set here for values at or beyond the usual limits of such assays; conditions: source organism: Human immunodeficiency virus 1
HLA-A*02:06 = assay: as above; conditions: source organism: Human immunodeficiency virus 1
HLA-A*02:12 = assay: as above; conditions: source organism: Human immunodeficiency virus 1
HLA-A*02:03 = assay: as above; conditions: source organism: Human immunodeficiency virus 1
HLA-A*02:01 [1] = assay: as above
HLA-A*69:01 = assay: as above; conditions: source organism: Human immunodeficiency virus 1
HLA-A*02:11 = assay: as above; conditions: source organism: Human immunodeficiency virus 1
HLA-A*02:16 = assay: as above; conditions: source organism: Human immunodeficiency virus 1
HLA-B*40:01 = assay: as above; conditions: source organism: Salmonella enterica subsp. enterica serovar Typhi
HLA-B*39:01 = assay: as above; conditions: source organism: Salmonella enterica subsp. enterica serovar Typhi
HLA-B*27:05 = assay: as above; conditions: source organism: Salmonella enterica subsp. enterica serovar Typhi
HLA-A*03:01 = assay: IEDB peptide-MHC binding, purified MHC/competitive/radioactivity; filed as Kd, often an IC50 or EC50 that approximates it; ≥ and ≤ were set here for values at or beyond the usual limits of such assays; conditions: source organism: Vaccinia virus WR
HLA-A*11:01 = assay: as above; conditions: source organism: Vaccinia virus WR
HLA-A*31:01 = assay: as above; conditions: source organism: Vaccinia virus WR
HLA-A*33:01 = assay: as above; conditions: source organism: Vaccinia virus WR
HLA-A*68:01 = assay: as above; conditions: source organism: Vaccinia virus WR
HLA-B*15:01 [2] = assay: IEDB peptide-MHC binding, purified MHC/competitive/fluorescence; ≥ and ≤ were set here for values at or beyond the usual limits of such assays; conditions: source organism: Vaccinia virus Copenhagen
HLA-A*02:01 [3] = assay: as above; conditions: source organism: Vaccinia virus Copenhagen
HLA-A*01:01 = assay: as above; conditions: source organism: Vaccinia virus Copenhagen
HLA-B*15:01 [4] = assay: IEDB peptide-MHC binding, purified MHC/competitive/fluorescence; filed as Kd, often an IC50 or EC50 that approximates it; ≥ and ≤ were set here for values at or beyond the usual limits of such assays; conditions: source organism: Salmonella enterica subsp. enterica serovar Typhi
HLA-C*15:02 = assay: IEDB peptide-MHC binding, purified MHC/direct/fluorescence; filed as Kd, often an IC50 or EC50 that approximates it; ≥ and ≤ were set here for values at or beyond the usual limits of such assays; conditions: source organism: Cytophaga hutchinsonii ATCC 33406

Sequence: KMGKAGYVT
- pKd (HLA-A*02:19): 5.22
- pKd (HLA-A*02:06): 6.22
- pKd (HLA-A*02:12): 5.92
- pKd (HLA-A*02:03): 6.71
- pKd (HLA-A*02:01 [1]; source organism: Human immunodeficiency virus 1): 6.49
- pKd (HLA-A*69:01): ≤ 4.70
- pKd (HLA-A*02:11): 7.61
- pKd (HLA-A*02:16): 6.58

Sequence: KQFCLSILL
- pKd (HLA-B*40:01): 7.04
- pKd (HLA-B*39:01): 7.19
- pKd (HLA-A*02:01 [1]; source organism: Salmonella enterica subsp. enterica serovar Typhi): 8.54
- pKd (HLA-B*27:05): 6.68

Sequence: MLEGETKLY
- pKd (HLA-A*03:01): 6.66
- pKd (HLA-A*11:01): 5.15
- pKd (HLA-A*31:01): ≤ 4.21
- pKd (HLA-A*33:01): ≤ 4.24
- pKd (HLA-A*68:01): 4.77
- pIC50 (HLA-B*15:01 [2]): 4.21
- pIC50 (HLA-A*02:01 [3]): ≤ 3.78
- pIC50 (HLA-A*01:01): 5.09

Sequence: MEDNFSIYI
- pKd (HLA-B*40:01): 8.47
- pKd (HLA-B*15:01 [4]): ≤ 4.70

Sequence: GLADAFILL
- pKd (HLA-C*15:02): ≤ 4.70
- pKd (HLA-A*02:01 [1]; source organism: Cytophaga hutchinsonii ATCC 33406): 9.22
